To fix the notation:
B1: Segment polarity protein dishevelled homolog DVL-2 (Mus musculus), Q60838 (parent)
chain: MAGSSAGGGGVGETKVIYHLDEEETPYLVKIPVPAERITLGDFKSVLQRPAGAKYFFKSMDQDFGVVKEEISDDNARLPCFNGRVVSWLVSSDTPQPEVAPPAHESRTELVPPPPPLPPLPPERTSGIGDSRPPSFHPNVSSSHENLEPETETESVVSLRRDRPRRRDSSEHGAGGHRPGGPSRLERHLAGYESSSTLMTSELESTSLGDSDEDDTMSRFSSSTEQSSASRLLKRHRRRRKQRPPRMERTSSFSSVTDSTMSLNIITVTLNMEKYNFLGISIVGQSNERGDGGIYIGSIMKGGAVAADGRIEPGDMLLQVNDMNFENMSNDDAVRVLRDIVHKPGPIVLTVAKCWDPSPQAYFTLPRNEPIQPIDPAAWVSHSAALTGAFPAYPGSSSMSTITSGSSLPDGCEGRGLSVHMDMASVTKAMAAPESGLEVRDRMWLKITIPNAFLGSDVVDWLYHHVEGFPERREARKYASGLLKAGLIRHTVNKITFSEQCYYVFGDLSGGCESYLVNLSLNDNDGSSGASDQDTLAPLPGATPWPLLPTFSYQYPAPHPYSPQPPPYHELSSYTYGGGSASSQHSEGSRSSGSTRSDGGAGRTGRPEERAPESKSGSGSESELSSRGGSLRRGGEPGGTGDGGPPPSRGSTGAPPNLRALPGLHPYGAPSGMALPYNPMMVVMMPPPPPPVSTAVQPPGAPPVRDLGSVPPELTASRQSFHMAMGNPSEFFVDVM
B2: AP-2 complex subunit mu (Rattus norvegicus (Rat)), P84092 (parent)
chain: MIGGLFIYNHKGEVLISRVYRDDIGRNAVDAFRVNVIHARQQVRSPVTNIARTSFFHVKRSNIWLAAVTKQNVNAAMVFEFLYKMCDVMAAYFGKISEENIKNNFVLIYELLDEILDFGYPQNSETGALKTFITQQGIKSQHQTKEEQSQITSQVTGQIGWRREGIKYRRNELFLDVLESVNLLMSPQGQVLSAHVSGRVVMKSYLSGMPECKFGMNDKIVIEKQGKGTADETSKSGKQSIAIDDCTFHQCVRLSKFDSERSISFIPPDGEFELMRYRTTKDIILPFRVIPLVREVGRTKLEVKVVIKSNFKPSLLAQKIEVRIPTPLNTSGVQVICMKGKAKYKASENAIVWKIKRMAGMKESQISAEIELLPTNDKKKWARPPISMNFEVPFAPSGLKVRYLKVFEPKLNYSDHDVIKWVRYIGRSGIYETRC
partner: B1 chain

Variants of B1 are the subject of one test. To be noted: with ap2m1_rat Ap2m1, P84092.
Take D441K;R489A: the “effect of a mutation on the interaction” value is “decreasing interaction”.

Y561A: the “effect of a mutation on the interaction” value is “disrupting interaction”.

In the case of D441K;N451A, the “effect of a mutation on the interaction” value is on record as “decreasing interaction”.

In the case of R489A, the “effect of a mutation on the interaction” value is recorded as “decreasing interaction”.

With K446A, the “effect of a mutation on the interaction” value is on record as “decreasing interaction strength”.

Regarding K446M, the “effect of a mutation on the interaction” value is recorded as “decreasing interaction strength”.

On to N451A, for which the “effect of a mutation on the interaction” value is “decreasing interaction”.

On to D441K, for which the “effect of a mutation on the interaction” value was “decreasing interaction”.

For the variant D441K;N451A;R489A, the “effect of a mutation on the interaction” value is “decreasing interaction”.

The variants in a further test derive from B1. To be noted: with ap2b1_bovin AP2B1, P63009.
ap2b1_bovin AP2B1, P63009, sequence (P63009 whole entry): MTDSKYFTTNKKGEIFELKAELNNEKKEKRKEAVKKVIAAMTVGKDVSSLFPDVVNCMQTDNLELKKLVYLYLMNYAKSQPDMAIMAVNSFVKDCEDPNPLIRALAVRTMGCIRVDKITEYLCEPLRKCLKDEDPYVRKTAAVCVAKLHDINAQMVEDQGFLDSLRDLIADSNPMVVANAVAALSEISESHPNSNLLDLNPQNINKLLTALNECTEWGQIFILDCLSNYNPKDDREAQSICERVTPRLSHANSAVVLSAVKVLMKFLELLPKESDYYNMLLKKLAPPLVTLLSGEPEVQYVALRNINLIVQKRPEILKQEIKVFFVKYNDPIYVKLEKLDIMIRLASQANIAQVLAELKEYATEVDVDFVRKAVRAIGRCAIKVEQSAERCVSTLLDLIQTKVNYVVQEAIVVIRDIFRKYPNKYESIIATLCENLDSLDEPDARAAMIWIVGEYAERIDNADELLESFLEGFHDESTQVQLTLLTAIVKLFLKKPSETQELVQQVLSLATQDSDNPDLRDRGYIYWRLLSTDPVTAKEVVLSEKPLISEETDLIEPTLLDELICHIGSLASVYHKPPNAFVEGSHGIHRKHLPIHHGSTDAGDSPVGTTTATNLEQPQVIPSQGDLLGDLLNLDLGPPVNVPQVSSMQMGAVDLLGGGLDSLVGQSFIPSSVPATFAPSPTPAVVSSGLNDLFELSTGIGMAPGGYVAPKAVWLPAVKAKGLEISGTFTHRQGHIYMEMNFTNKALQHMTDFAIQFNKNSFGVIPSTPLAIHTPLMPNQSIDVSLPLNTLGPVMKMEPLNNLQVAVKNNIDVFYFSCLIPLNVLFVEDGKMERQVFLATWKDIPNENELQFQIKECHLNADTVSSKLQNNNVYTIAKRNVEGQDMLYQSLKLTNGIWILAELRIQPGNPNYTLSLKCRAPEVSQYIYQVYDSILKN
As for Y561A, the “effect of a mutation on the interaction” value was “disrupting interaction”.

Variants of B2 are the subject of another test. The conditions noted are these: with dvl2_mouse Dvl2, Q60838.
Take K213D;K405D: the “effect of a mutation on the interaction” value is reported as “decreasing interaction”.

In the case of W421A, the “effect of a mutation on the interaction” value is listed as “disrupting interaction”.

In the case of E211A;K213D;K405D;F407A, the “effect of a mutation on the interaction” value is recorded as “decreasing interaction”.

In the case of E211A;K213D;K405D, the “effect of a mutation on the interaction” value is given as “decreasing interaction”.

For the origin of these results see IntAct's records for PubMed 20947020.
